The text below walks through data of patent publication US20250382353A1 (LA JOLLA INSTITUTE FOR IMMUNOLOGY, published 2025).

Assay in all cases: cell-based or functional assay
Assay [1] concerns the target rVSV-Omicron spike (SARS-CoV-2 Omicron, UniProt P0DTC2 14-1252).
The target in assay [2] is rVSV-G614 spike (SARS-CoV-2, UniProt P0DTC2 14-1252).
The target in assay [3] is rVSV-Delta spike (SARS-CoV-2 Delta, UniProt P0DTC2 14-1252).

B1: LJI_491-27 (1C3) (antibody, V domains shown)
VH: QVQLLESGGGLVQPGRSLRLSCAASGFTFDDYAMHWVRQPPGKGLEWVSGSSWNSGSVVYADSVKGRFTISRDSAKNSLHLQMNSLRVEDTALYYCAKAVDPTRGSYSPDYGFDIWGQGTMVTVS
VL: not shown
For the molecule B1, in assay [1], the “IC50 (ng/mL), neutralization of rVSV-Omicron pseudovirions on Vero cells” value turned out to be 3 ng/mL. Moreover, the “IC50 (ng/mL), neutralization of rVSV-G614 pseudovirions on Vero cells” value in assay [2] was 8 ng/mL. In addition, in assay [3], the “IC50 (ng/mL), neutralization of rVSV-Delta pseudovirions on Vero cells” value worked out at 12 ng/mL.

B2: LJI_491-39 (2E6) (antibody, V domains shown)
VH: EVQLVQSGGGLVQPGGSLKLSCAASGFTFSGSAMHWVRQASGKGLEWVGHIRSKANSYATAYAASKGRFTISRDDSKNTAYLQMNSLKTEDTAVYYCTREDIVGVPVAKDWFDPWGQGTLVTVS
VL: DIQMTQSPSSLFASVGDRVTITCRASQSISSYLNWYQQKPGKAPKLLIYAASSLQSGVPSRFSGSGFGTDFTLTISSLQPEDFATYYCQQSYSTLSITFGQGTRLEIKR
As to B2, the “IC50 (ng/mL), neutralization of rVSV-Omicron pseudovirions on Vero cells” value in assay [1] was found to be 88 ng/mL. The “IC50 (ng/mL), neutralization of rVSV-G614 pseudovirions on Vero cells” value in assay [2] came to 15 ng/mL. For the same molecule, in assay [3], the “IC50 (ng/mL), neutralization of rVSV-Delta pseudovirions on Vero cells” value stood at 324 ng/mL.
